Experimental findings from PMC3107886 are described below.

In test [1] the target is soluble gHgL (gH residue 18-679 and gL residue 24-137) (Epstein-Barr virus) (UniProt P03231). The test is described as follows: SEC. Background: Size exclusion chromatography separates by hydrodynamic size, large species first.
Test [2] addresses soluble HLA-DR1 loaded with A2 peptide (human). The test is described as follows: SEC.

Chain of UniProt P03231 (P03231 18-679 limits assumed, chain 1 of 2): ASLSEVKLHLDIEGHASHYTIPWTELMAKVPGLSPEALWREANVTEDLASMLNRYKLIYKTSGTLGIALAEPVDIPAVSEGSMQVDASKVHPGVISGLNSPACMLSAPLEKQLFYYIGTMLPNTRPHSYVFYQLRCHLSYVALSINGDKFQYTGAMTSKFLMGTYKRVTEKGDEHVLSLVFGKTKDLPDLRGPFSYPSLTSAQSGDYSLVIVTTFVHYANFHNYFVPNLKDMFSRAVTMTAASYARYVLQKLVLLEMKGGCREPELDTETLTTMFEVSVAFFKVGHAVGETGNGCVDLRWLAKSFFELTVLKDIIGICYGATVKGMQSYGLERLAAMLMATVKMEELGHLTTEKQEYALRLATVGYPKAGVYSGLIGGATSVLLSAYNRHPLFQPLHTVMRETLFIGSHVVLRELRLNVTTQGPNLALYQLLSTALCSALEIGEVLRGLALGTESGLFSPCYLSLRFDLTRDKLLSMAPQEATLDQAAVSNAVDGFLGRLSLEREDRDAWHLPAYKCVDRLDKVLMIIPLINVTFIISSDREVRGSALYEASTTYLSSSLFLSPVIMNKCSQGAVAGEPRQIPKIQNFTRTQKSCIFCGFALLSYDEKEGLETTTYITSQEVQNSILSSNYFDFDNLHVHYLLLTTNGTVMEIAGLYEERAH
Chain of UniProt P03231 (P03212 24-137 limits assumed, chain 2 of 2, further chain): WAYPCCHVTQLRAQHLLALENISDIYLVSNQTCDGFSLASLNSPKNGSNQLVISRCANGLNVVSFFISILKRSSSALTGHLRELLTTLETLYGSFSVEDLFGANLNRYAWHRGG

“soluble gp42 (residue 33-223) (from UniProt P03205 33-223) (domain or fragment)”: in test [1], the stoichiometry N (gp42 per gHgL) was determined as 1. The substance further returned a stoichiometry N (gp42 per HLA-DR1) in test [2] of 1.
